Data published in the RNAGym collection of RNA variant scans (doi:10.1073/pnas.2313332121).
Variants at the floor of the assay were thinned out.

B1: TPR 5TU (parent)
chain: GGAUCUUCUCGAUCUAACAAAAAAGACAAAUCUGCCACAAAGCUUGAGAGCAUCUUCGGAUGCAGAGGCGGCAGCCUUCGGUGGCGCGAUAGCGCCAACGUUCUCAACUAUGACACGCAAAACGCGUGCUCCGUUGAAUGGAGUUUAUCAUG

Variants of: B1
Experiment: polymerase ribozyme fitness, log enrichment relative to wild type (log ratio); higher = more active; in vitro selection for triplet polymerase activity
How it was run: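 To select mutant libraries of each subunit of a heterodimeric triplet polymerase ribozyme, built by PCR and transcribed, each was annealed with a biotinylated primer, partner subunit and triplets, then incubated frozen at −7 °C. Extended constructs were gel-excised, captured on streptavidin beads and amplified by RT-PCR, in one round carried out in triplicate. Illumina sequencing of input and output libraries kept genotypes with ≥10 input reads and ≥1 read per output. Fitness is the base-2 logarithm of genotype enrichment relative to wild-type enrichment, from inverse-variance-weighted replicate averages.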

Which “polymerase ribozyme fitness (log ratio)” value does the source give for GGAUCUUCUCGAUCUAACAAAAAAGACAAAGCUGCCACAAAGCUUGAGAGCAUCUUCGGAUGCAGAGGCGGCAGCCUUCGGUGGCGCGAUUGCGCCAACGUUCUCAACUAUGACACGCAAAACGCGUGCUCCGUUGAAUGGAGUUUAUCAUG here?
The value was -4.03.

Which “polymerase ribozyme fitness (log ratio)” value does the source give for GGAUCUUCUCGAUCUAACAAAAAAGACAAAGCUGCCACAAAGCUUGAGAGCAUUUUCGGAUGCAGAGGCGGCAGCCUUCGGUGGCGCGAUAGCGCCAACGUUCUCAACGAUGACACGCAAAACGCGUGCUCCGUUGGAUGGAGUUUAUCAUG here?
Its value is -2.71.

With GGAUCUUCUCGAUCUAACAAAAAAGACAAAGCUGUCACAAAGCUUGAGAGCAUCUUUGGAUGCAGAGGCGGCAGCCUUCGGUGGCGCGAUAGCGCCAACGUUCUCAACUAUGACACACAAAACGCGUGCUCCGUUGAAUGGAGUUUAUCAUG as the variant, how does the “polymerase ribozyme fitness (log ratio)” value read?
Its value is -0.0701.

With GGAUCUUCUCGAUCUAACAAAAAAGACAAAGCUGCCACAAAGCUUGAGAGCCUCUUCGGAUGCUGAGGCGGCAGGCUUCGGUGGCGCGACAGCGCCAAUGUUCUCAACUAUGACACGCAAAACGCGUGCUCCGGUGAAUGGAGUUUAUCAUG as the variant, how does the “polymerase ribozyme fitness (log ratio)” value read?
The value was no more than -4.2.

For GGAUCUUCUCGAUCUAACAAAAAAGACAAAGCUGCCACAAAGCUUGAGAGCCUCUUCGGAUGCAGAGGCGGCAGCCUUCGGUAGCGCGAUAGCGCCAACGUUCUCAACUAUGACACGCAAAACGCGUGCUCCGUUGAAUGGAGUUUAUCAUG, which “polymerase ribozyme fitness (log ratio)” value is on record?
The value was -2.81.

With GGAUCUUCUCGAUCUAACAAAAAAGACAAAGCUGCCACAAAGCUUGAGAGCAUCUUCGGAUGCAGAGGCGGCAGCCUUUGGUGGCGCGAGAGCGCCAACGUUCUCGAAUAUGACACGCAAAACGCGUGCUCCGUUGCAUGGAGUUUAUCAUG as the variant, how does the “polymerase ribozyme fitness (log ratio)” value read?
The value was no more than -4.2.

For GGAUCUUCUCGAUCUAACAAAAAAGACAAAGCUGCCACAAAGCUUGAGAGCAUCUUGGGAUGCAGAGGCGGCAGCCUUCGGUGGCGCUAUAGCGCCAACGUUCUCAACUAUGACACGCAAAACGCGUGCUCCGUUGAAUGGAGUUUAUCAUG, which “polymerase ribozyme fitness (log ratio)” value is on record?
The value was no more than -4.2.

For GGAUCUUCUCGAUCUAACAAAAAAGACAAAGCUGCCACAUAGCUUGAAAGCAUCUUCGGAUGCAGAGGCGGCAGCCUUCGGUGACGUGAUAGCGCCAACGUUCUCAACUAUGACACGCUAAACGCGUGCUCCGUUGAAUGGAGUUUAUCAUG, which “polymerase ribozyme fitness (log ratio)” value is on record?
The value was no more than -4.2.

With GGAUCUUCUCGAUCUAACAAAAAAGACAAAGCUGCCACAAAGCUUGAGAGCAUCUUCGGAUGCAGAGGCGGCAGCCUUCGGUGGCGCGAUAGCGCCAAUGUUCUCAACUAUGACACGCAAAACGCGUGCUCCGUUGAAUGGAGUGUAUCAUG as the variant, how does the “polymerase ribozyme fitness (log ratio)” value read?
The value was -0.861.

Which “polymerase ribozyme fitness (log ratio)” value does the source give for GGAUCUUCUCGAUCUAACAAAAAAGACAAAGCUGCCACCAAGCUUGAGAACAUCUUCGGAUGCAGAGGCGGCAGCCUUCGGUGGCGCGAUAUCGCCAACGUUCUCAACUAUGACACACAAAACGCGUGCUCCGUUGAAUUGAGUAUGUCAUG here?
Its value is no more than -4.2.

Which “polymerase ribozyme fitness (log ratio)” value does the source give for GGAUCUUCUCGAUCUAACAAAAAAGACAAAGCUGCCACGAAGCUUGAGAGCAUCAUCGGAUGCAGCGCUGGCAGCCUUCGGUGGCGCGAUAGCGCCAACGUUCUCAACUAUGACACACAAAACGCGUGCUCCGUUGAAUGGAGUUUAUCAUG here?
Its value is no more than -4.2.

With GGAUCUUCUCGAUCUAACAAAAAAGACAAAGCUGCCACAAAGGUUGAGAGCAACUUCGGAUGCAGAGGCGGCAGCCUUCGGUUGCGCGAUAGCGCCAACGUUCUCAACUAUGACACGCAAAACGCGUGCUCCGUUGAAUGGAGUUUAUCAUG as the variant, how does the “polymerase ribozyme fitness (log ratio)” value read?
The value was no more than -4.2.

With GGAUCUUCUCGAUCUAACAAAAAAGACAAAGCUGCCACAAAGCUUGAGAGCAUCUUCGGAUGCAGAGGCGGCAGCCUUCGGUGGUGCGAUAGCGCCAACGUUCUCAACUAUGACACGCAAAACGCGUGCUCCGUUGAAUGGAGUUUAUCAUG as the variant, how does the “polymerase ribozyme fitness (log ratio)” value read?
The value was 0.998.

With GGAUCUUCUCGAUCUAACAAAAAAGACAAAGCUGCCACAAAGCUUGAGAGCAUCUUAGGAUGCAGAGGCGGCAGCCUUCGGUGGCGCGAUAGCGCCAACGUUCUCAACUAUGACACGCAAAACGCGUGCUCCGUUAAAUAGAGUUAAUCAUG as the variant, how does the “polymerase ribozyme fitness (log ratio)” value read?
Its value is -3.1.

With GGAUCUUCUCGAUCUAACAAAAAAGACAAAGCUGCCACAAAGCUUGAGAGCAUCUUCGGAUGCAGAGGCGGCAGCCUUCGGUGGCGCGGUAGCGUCAACGUUCUCAACUAUGACACGCAAAACGCGUGCUCCGUUGAAUGGAGUUUAUCAUG as the variant, how does the “polymerase ribozyme fitness (log ratio)” value read?
Its value is -1.41.

For GGAUCUUCUCGAUCUAACAAAAAAGACAAAGCUGCCAGAAAGCUUGAGAGCAUCUUCGGAUGCAGAGGCGGCAGCCUUCGGUGGCGCGAUAGCGCCAACGGUCUCAACUAUGACACGCAAAACGCGUGCUCCGUUGAACGGAGUUGAUCAUG, which “polymerase ribozyme fitness (log ratio)” value is on record?
Its value is -4.03.

Which “polymerase ribozyme fitness (log ratio)” value does the source give for GGAUCUUCUCGAUCUAACAAAAAAGACAAAGCUGCCACAAAGCUUGAGAGCAUAUUCGGAUGCAGAGGCGGCAGCCUUCGGUGGCGCAAUAGCGCCAACGUUCUCAACUAUGACACGCAAAACGCAUGCUCCGUUGAAUGAAGUUUAUCAUG here?
Its value is no more than -4.2.

Which “polymerase ribozyme fitness (log ratio)” value does the source give for GGAUCUUCUCGAUCUAACAAAAAAGACAAAGCUGCCACAAAGCUUGAGAGCAUGUUCGGAUGCAGAGGCGGCAGCCUUCGGUGGCGCGAUAGCGCCAACGUUCUCAACUAUGACACGCAAAACGCGUGCUCCGUUGAAUGGAGUUUAUCAUG here?
Its value is -1.02.

Which “polymerase ribozyme fitness (log ratio)” value does the source give for GGAUCUUCUCGAUCUAACAAAAAAGACAAAGUUGCCACAAAGCUUGAGAGCAUCUUCGGAUGCAGAGGCGGAAGCCUUCGGUGGCGCGAUAGCGCCAACGUUCUCAACUAUGACACGCAAAAGGCGUGCUCCGUUGAAUGGAGUUUAUCAUA here?
The value was no more than -4.2.
